This is an account of results in PMC10179125, “Populus euphratica GLABRA3 Binds PLDδ Promoters to Enhance Salt Tolerance”.

The target in data set [1] is T1, PeGLABRA3 (Populus euphratica, UniProt A0AAJ6UG00 1-628).
T1 sequence: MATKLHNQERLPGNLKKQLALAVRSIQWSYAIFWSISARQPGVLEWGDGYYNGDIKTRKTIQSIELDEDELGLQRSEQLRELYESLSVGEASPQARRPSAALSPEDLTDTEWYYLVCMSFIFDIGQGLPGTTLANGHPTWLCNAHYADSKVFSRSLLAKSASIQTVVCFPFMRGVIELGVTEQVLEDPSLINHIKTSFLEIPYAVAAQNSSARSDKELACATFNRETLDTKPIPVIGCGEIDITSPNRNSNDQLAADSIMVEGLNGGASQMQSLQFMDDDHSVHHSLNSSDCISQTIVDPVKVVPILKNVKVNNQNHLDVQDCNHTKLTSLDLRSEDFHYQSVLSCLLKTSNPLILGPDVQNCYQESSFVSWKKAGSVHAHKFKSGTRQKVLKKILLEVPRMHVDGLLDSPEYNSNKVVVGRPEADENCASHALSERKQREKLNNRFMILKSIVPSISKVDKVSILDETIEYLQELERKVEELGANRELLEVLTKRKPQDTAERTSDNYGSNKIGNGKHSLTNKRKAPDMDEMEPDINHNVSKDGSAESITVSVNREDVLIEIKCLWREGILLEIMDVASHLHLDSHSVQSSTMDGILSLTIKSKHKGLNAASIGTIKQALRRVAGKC
Briefly: EMSA; EMSA on 6% polyacrylamide gel, biotin probes, cold probe 10x; binding buffer, pH, salt and temperature not stated. Particulars: protein: recombinant; tags: C-terminal His (pET28a); chain copies: 2; label: 3' biotin; blunt. Background: Mobility shift assays separate free from complexed probe on a gel.

Data set [2] addresses T1, PeGLABRA3. Put plainly: competition; 10x unlabeled probe vs biotin N1; EMSA on 6% polyacrylamide gel, biotin probes, cold probe 10x; binding buffer, pH, salt and temperature not stated. Particulars: protein: recombinant; tags: C-terminal His (pET28a); chain copies: 2; blunt.

B1: PePLDδ promoter G-box probe (dsDNA)
DNA 1: CGCTGATCCGGGTAACTGAAATCAGCTGCTGAGAGATGGAAGAGGAGAAT
DNA 2: ATTCTCCTCTTCCATCTCTCAGCAGCTGATTTCAGTTACCCGGATCAGCG
With B1, in the data set with PeGLABRA3 [1], the binding result is given as “binds”.

B2: PePLDδ promoter G-box cold probe (dsDNA)
DNA 1: B1 DNA 1
DNA 2: B1 DNA 2
For B2, the binding result with PeGLABRA3 [2] is listed as “binds”.

B3: AtPLDδ promoter G-box probe (dsDNA)
DNA 1: AACTCCCATCACGTCGTCCCTCCACCTGTCCTCTCTTCTCCTTCCTTGCT
DNA 2: AGCAAGGAAGGAGAAGAGAGGACAGGTGGAGGGACGACGTGATGGGAGTT
As to B3, the binding result with PeGLABRA3 [1] is listed as “binds”.
